Experimental data from paper PMC7396682, “Effect of a Novel Alpha/Beta Hydrolase Domain Protein on Tolerance of K. marxianus to Lignocellulosic Biomass Derived Inhibitors” (Frontiers in Bioengineering and Biotechnology, 2020).

Tests used:
Test in all cases: purified protein
Format in all cases: biochemical, Kluyveromyces marxianus
purified protein [1] = substrate: CC(=O)Oc1ccc([N+](=O)[O-])cc1; conditions: 50 mM Tris-HCl, pH 8.0, 37 °C
purified protein [2] = substrate: CC(C)(COP(=O)(O)OP(=O)(O)OC[C@H]1O[C@@H](n2cnc3c(N)ncnc32)[C@H](O)[C@@H]1OP(=O)(O)O)[C@@H](O)C(=O)NCCC(=O)NCCSC(=O)CCC(=O)O; conditions: 100 mM HEPES, pH 8.0, 37 °C, 1 mM DTNB
purified protein [3] = substrate: CCCC(=O)Oc1ccc([N+](=O)[O-])cc1; conditions: 50 mM Tris-HCl, pH 8.0, 37 °C
purified protein [4] = substrate: CCCC(=O)SCCNC(=O)CCNC(=O)[C@H](O)C(C)(C)COP(=O)(O)OP(=O)(O)OC[C@H]1O[C@@H](n2cnc3c(N)ncnc32)[C@H](O)[C@@H]1OP(=O)(O)O; conditions: 100 mM HEPES, pH 8.0, 37 °C, 1 mM DTNB
purified protein [5] = substrate: CCCCCCCCCC(=O)SCCNC(=O)CCNC(=O)[C@H](O)C(C)(C)COP(=O)(O)OP(=O)(O)OC[C@H]1O[C@@H](n2cnc3c(N)ncnc32)[C@H](O)[C@@H]1OP(=O)(O)O; conditions: 100 mM HEPES, pH 8.0, 37 °C, 1 mM DTNB

Protein	Km (purified protein [1]) [µM]	Km (purified protein [2]) [µM]	Km (purified protein [3]) [µM]	Km (purified protein [4]) [µM]	Km (purified protein [5]) [µM]
KmYME (Kluyveromyces marxianus DMKU3-1042) (protein, expressed from pWD010 (T7 promoter) in E. coli BL21(DE3), nickel-column purified (tag not described); native full length 360 aa) MLLAYTVRPSNWSFTRRAYSATARAFNQQKGLLPLPIKETVDMAYDLHLPERSVIGKMPYHSPEPIIFYHGLLGSKRNYRHDCKKLATALQTPVYTVDIRNHGSSEHALPFDYNTLVNDLVHFAETHSLGKVNLVGYSLGAKVAMLACLKHPERFSAACIIDNSPEEQPHIKPLLTALVKSCVKLLDHHNVRADDKLWRHKASEALKKYIPDAGIRYYLLSNIINNPRVVEYRSPVINYDDGMLHFKNPVRHMMDFVTKEVAAWPTQELEGKQFLGPVNFIKATRSDFINPKSLQAINQYFPYHNIDEINATHFILNERPQEYLRAVTDFFKVTRYQLEKKREQDLAKIDQLNASESLKSARD	189.73 ± 12.20	387.58 ± 3.42	258.41 ± 5.97	468.44 ± 20.62	329.20 ± 12.75
KmYME (Kluyveromyces marxianus DMKU3-1042; L139M/Y137H) (protein, expressed from pWD010 (T7 promoter) in E. coli BL21(DE3), nickel-column purified (tag not described); native full length 360 aa) MLLAYTVRPSNWSFTRRAYSATARAFNQQKGLLPLPIKETVDMAYDLHLPERSVIGKMPYHSPEPIIFYHGLLGSKRNYRHDCKKLATALQTPVYTVDIRNHGSSEHALPFDYNTLVNDLVHFAETHSLGKVNLVGHSMGAKVAMLACLKHPERFSAACIIDNSPEEQPHIKPLLTALVKSCVKLLDHHNVRADDKLWRHKASEALKKYIPDAGIRYYLLSNIINNPRVVEYRSPVINYDDGMLHFKNPVRHMMDFVTKEVAAWPTQELEGKQFLGPVNFIKATRSDFINPKSLQAINQYFPYHNIDEINATHFILNERPQEYLRAVTDFFKVTRYQLEKKREQDLAKIDQLNASESLKSARD	193.89 ± 10.00	1022.84 ± 145.83	685.66 ± 34.83	1138.20 ± 185.83	449.88 ± 87.78
